This is an account of results in patent US20120190558A1.

The target of this experiment is endogenous KCNH2-1A of rat cortical neurons (rat) (UniProt O08962). As to the kind of experiment: cell-based or functional assay.

“Isoform 3.1 of KCNH2 (human) (from UniProt Q12809 103-1159)” returned a deactivation time constant (tau) of E-4031-sensitive tail current, slow component, at -100 mV of command potential of 7.43 fold and a fold decrease in deactivation time constant (tau) of E-4031-sensitive tail current, fast component, at -100 mV of command potential of 5.88 fold.
